# Columns and labels:
# [1] = test system: GST-Z1-dsDNA×4 [GST: P08515]
# GST-dsDNA×1 = test system: T1, GST-dsDNA×1
# T1 sequence: GGGEETQTQDQPMEEEEV
# [2] = test system: GST-dsDNA×2 [GST: P08515]
# [3] = test system: GST-dsDNA×3 [GST: P08515]
# [4] = test system: GST-dsDNA×4 [GST: P08515]
# [5] = test system: PKA kinase substrate (GST fusion, Table 2) [GST: P08515]
# [6] = test system: dsDNAPK kinase substrate (GST fusion, Table 2) [GST: P08515]
# [7] = test system: CK1 kinase substrate (GST fusion, Table 2) [GST: P08515]
# [8] = test system: ERK kinase substrate (GST fusion, Table 2) [GST: P08515]
# [9] = test system: IKK kinase substrate (GST fusion, Table 2) [GST: P08515]
# [10] = test system: JNK3 kinase substrate (GST fusion, Table 2) [GST: P08515]
# [11] = test system: Src kinase substrate (GST fusion, Table 2) [GST: P08515]
# [12] = test system: CK2 kinase substrate (GST fusion, Table 2) [GST: P08515]
# [13] = test system: AMPK kinase substrate (GST fusion, Table 2) [GST: P08515]
# [14] = test system: GST-Z1-AMPK×3 [GST: P08515]
# [15] = test system: GST-Z2-AMPK×3 [GST: P08515]
# [16] = test system: Abl kinase substrate (GST fusion, Table 2) [GST: P08515]
# [17] = test system: EGFR kinase substrate (GST fusion, Table 2) [GST: P08515]
# [18] = test system: CHK kinase substrate (GST fusion, Table 2) [GST: P08515]
# GST-Abl×1 = test system: T2, GST-Abl×1
# T2 sequence: AIYAAPF
# GST-Z2-Abl×1 = test system: T3, GST-Z2-Abl×1
# T3 sequence: AIYAAPF
# [19] = test system: GST-Z2-Src×2 [GST: P08515]
# JNK3, sequence (P53779 whole entry): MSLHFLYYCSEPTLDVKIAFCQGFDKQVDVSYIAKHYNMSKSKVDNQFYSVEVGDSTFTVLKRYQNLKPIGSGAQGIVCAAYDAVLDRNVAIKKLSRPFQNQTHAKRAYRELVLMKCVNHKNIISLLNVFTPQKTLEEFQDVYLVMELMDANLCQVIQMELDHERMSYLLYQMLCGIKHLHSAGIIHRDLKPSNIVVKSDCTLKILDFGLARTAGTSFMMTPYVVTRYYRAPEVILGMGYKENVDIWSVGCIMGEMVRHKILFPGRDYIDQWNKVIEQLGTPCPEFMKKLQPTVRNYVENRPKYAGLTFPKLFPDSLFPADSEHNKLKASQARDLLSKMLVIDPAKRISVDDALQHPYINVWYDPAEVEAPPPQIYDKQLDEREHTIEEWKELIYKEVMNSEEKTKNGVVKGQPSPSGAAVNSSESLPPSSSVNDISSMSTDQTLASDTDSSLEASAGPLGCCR
substance,measurement,setting,value
dsDNA (DNAPK),"phosphorylation of the substrate on beads (32P-ATP, SDS-PAGE, autoradiogram; FIG. 6)",[1],All of the protein kinase substrates reacted with their corresponding kinases
same,"phosphorylation by dsDNA PK (32P ATP, SDS-PAGE, autoradiogram; FIG. 7)",GST-dsDNA×1,autoradiogram of phosphorylated GST-dsDNA kinase peptide substrate fusion proteins with different number of the peptide repeats
same,"phosphorylation by dsDNA PK (32P ATP, SDS-PAGE, autoradiogram; FIG. 7)",[2],autoradiogram of phosphorylated GST-dsDNA kinase peptide substrate fusion proteins with different number of the peptide repeats
same,"phosphorylation by dsDNA PK (32P ATP, SDS-PAGE, autoradiogram; FIG. 7)",[3],autoradiogram of phosphorylated GST-dsDNA kinase peptide substrate fusion proteins with different number of the peptide repeats
same,"phosphorylation by dsDNA PK (32P ATP, SDS-PAGE, autoradiogram; FIG. 7)",[4],autoradiogram of phosphorylated GST-dsDNA kinase peptide substrate fusion proteins with different number of the peptide repeats
same,"Reactivity for each of the Kinase Substrates (32P phosphorylation, autoradiogram)",[5],+++++
same,"Reactivity for each of the Kinase Substrates (32P phosphorylation, autoradiogram)",[6],+++++
IKK,"Reactivity for each of the Kinase Substrates (32P phosphorylation, autoradiogram)",[7],+++++
same,"Reactivity for each of the Kinase Substrates (32P phosphorylation, autoradiogram)",[8],+
same,"phosphorylation of the substrate on beads (32P-ATP, SDS-PAGE, autoradiogram; FIG. 6)",GST-IKK×4 [GST: P08515],All of the protein kinase substrates reacted with their corresponding kinases
same,"phosphorylation in the 4-member substrate ladder on beads (32P-ATP, SDS-PAGE, autoradiogram; FIG. 12)",GST-IKK×7 [GST: P08515],"All of the protein kinase substrates reacted with their corresponding kinases, and cross-reactivity with other substrate was minimal"
same,"phosphorylation of the substrate on beads (32P-ATP, SDS-PAGE, autoradiogram; FIG. 6)",GST-IKK×7 [GST: P08515],All of the protein kinase substrates reacted with their corresponding kinases
same,"Reactivity for each of the Kinase Substrates (32P phosphorylation, autoradiogram)",[9],+++++
same,"Reactivity for each of the Kinase Substrates (32P phosphorylation, autoradiogram)",[10],+
same,"Reactivity for each of the Kinase Substrates (32P phosphorylation, autoradiogram)",[11],+
CK2,"Reactivity for each of the Kinase Substrates (32P phosphorylation, autoradiogram)",[12],+++++
same,"phosphorylation of the substrate on beads (32P-ATP, SDS-PAGE, autoradiogram; FIG. 6)",GST-CK2×4 [GST: P08515],All of the protein kinase substrates reacted with their corresponding kinases
same,"Reactivity for each of the Kinase Substrates (32P phosphorylation, autoradiogram)",[9],+
AMPK,"Reactivity for each of the Kinase Substrates (32P phosphorylation, autoradiogram)",[13],+++++
same,"phosphorylation of the substrate on beads (32P-ATP, SDS-PAGE, autoradiogram; FIG. 6)",[14],All of the protein kinase substrates reacted with their corresponding kinases
same,"phosphorylation of the substrate on beads (32P-ATP, SDS-PAGE, autoradiogram; FIG. 6)",[15],All of the protein kinase substrates reacted with their corresponding kinases
JNK3,"Reactivity for each of the Kinase Substrates (32P phosphorylation, autoradiogram)",[8],+
same,"phosphorylation of the substrate on beads (32P-ATP, SDS-PAGE, autoradiogram; FIG. 6)",GST-JNK3×3 [GST: P08515],All of the protein kinase substrates reacted with their corresponding kinases
same,"phosphorylation in the 4-member substrate ladder on beads (32P-ATP, SDS-PAGE, autoradiogram; FIG. 12)",GST-JNK3×8 [GST: P08515],"All of the protein kinase substrates reacted with their corresponding kinases, and cross-reactivity with other substrate was minimal"
same,"phosphorylation of the substrate on beads (32P-ATP, SDS-PAGE, autoradiogram; FIG. 6)",GST-JNK3×8 [GST: P08515],All of the protein kinase substrates reacted with their corresponding kinases
same,"Reactivity for each of the Kinase Substrates (32P phosphorylation, autoradiogram)",[10],+++++
EGFR,"Reactivity for each of the Kinase Substrates (32P phosphorylation, autoradiogram)",[16],+++++
same,"Reactivity for each of the Kinase Substrates (32P phosphorylation, autoradiogram)",[17],+++++
same,"phosphorylation in the 4-member substrate ladder on beads (32P-ATP, SDS-PAGE, autoradiogram; FIG. 12)",GST-EGFR×3 [GST: P08515],"All of the protein kinase substrates reacted with their corresponding kinases, and cross-reactivity with other substrate was minimal"
same,"phosphorylation of the substrate on beads (32P-ATP, SDS-PAGE, autoradiogram; FIG. 6)",GST-EGFR×3 [GST: P08515],All of the protein kinase substrates reacted with their corresponding kinases
CHK,"Reactivity for each of the Kinase Substrates (32P phosphorylation, autoradiogram)",[18],+++++
same,"phosphorylation of the substrate on beads (32P-ATP, SDS-PAGE, autoradiogram; FIG. 6)",GST-CHK×5 [GST: P08515],All of the protein kinase substrates reacted with their corresponding kinases
Abl,"Reactivity for each of the Kinase Substrates (32P phosphorylation, autoradiogram)",[13],+++
same,"Reactivity for each of the Kinase Substrates (32P phosphorylation, autoradiogram)",[16],+++++
same,"Reactivity for each of the Kinase Substrates (32P phosphorylation, autoradiogram)",[17],+++++
same,"phosphorylation of the substrate on beads (32P-ATP, SDS-PAGE, autoradiogram; FIG. 6)",GST-Abl×1,All of the protein kinase substrates reacted with their corresponding kinases
same,"phosphorylation of the substrate on beads (32P-ATP, SDS-PAGE, autoradiogram; FIG. 6)",GST-Z2-Abl×1,All of the protein kinase substrates reacted with their corresponding kinases
PKA,"phosphorylation of the substrate on beads (32P-ATP, SDS-PAGE, autoradiogram; FIG. 6)",GST-Z1-PKA [GST: P08515],All of the protein kinase substrates reacted with their corresponding kinases
same,"Reactivity for each of the Kinase Substrates (32P phosphorylation, autoradiogram)",[5],+++++
same,"Reactivity for each of the Kinase Substrates (32P phosphorylation, autoradiogram)",[11],+++++
same,"Reactivity for each of the Kinase Substrates (32P phosphorylation, autoradiogram)",[6],+++++
CK1,"Reactivity for each of the Kinase Substrates (32P phosphorylation, autoradiogram)",[7],+++++
same,"phosphorylation of the substrate on beads (32P-ATP, SDS-PAGE, autoradiogram; FIG. 6)",GST-CK1×4 [GST: P08515],All of the protein kinase substrates reacted with their corresponding kinases
same,"Reactivity for each of the Kinase Substrates (32P phosphorylation, autoradiogram)",[9],+
same,"Reactivity for each of the Kinase Substrates (32P phosphorylation, autoradiogram)",[11],+++++
same,"Reactivity for each of the Kinase Substrates (32P phosphorylation, autoradiogram)",[6],+++++
Src,"Reactivity for each of the Kinase Substrates (32P phosphorylation, autoradiogram)",[13],+++
same,"Reactivity for each of the Kinase Substrates (32P phosphorylation, autoradiogram)",[16],+++++
same,"Reactivity for each of the Kinase Substrates (32P phosphorylation, autoradiogram)",[7],+++++
same,"phosphorylation in the 4-member substrate ladder on beads (32P-ATP, SDS-PAGE, autoradiogram; FIG. 12)",[19],"All of the protein kinase substrates reacted with their corresponding kinases, and cross-reactivity with other substrate was minimal"
same,"phosphorylation of the substrate on beads (32P-ATP, SDS-PAGE, autoradiogram; FIG. 6)",[19],All of the protein kinase substrates reacted with their corresponding kinases
same,"Reactivity for each of the Kinase Substrates (32P phosphorylation, autoradiogram)",[10],+
same,"Reactivity for each of the Kinase Substrates (32P phosphorylation, autoradiogram)",[11],+++++

# From patent publication US20060046277
